Laboratory results published in publication PMC10549244 (RSC Chemical Biology, 2023).

Molecular target: the molecule itself
Assay: crystal structure

B1: SonM, borosin α-N-methyltransferase (wild type) (enzyme, Shewanella oneidensis MR-1)
chain: MGSLVCVGTGLQLAGQISVLSRSYIEHADIVFSLLPDGFSQRWLTKLNPNVINLQQFYAQNGEVKNRRDTYEQMVNAILDAVRAGKKTVCALYGHPGVFACVSHMAITRAKAEGFSAKMEPGISAEACLWADLGIDPGNSGHQSFEASQFMFFNHVPDPTTHLLLWQIAIAGEHTLTQFHTSSDRLQILVEQLNQWYPLDHEVVIYEAANLPIQAPRIERLPLANLPQAHLMPISTLLIPPAKKLEYNYAILAKLGIGPEDLG
stoichiometry N: 2
